{
  "source": "patent US20220236279A1",
  "about": "(LUXEMBOURG INSTITUTE OF HEALTH LIH, published 2022)",
  "binders": {"B1": {"name": "adrenorphin Y1F variant (SEQ ID NO: 35; NH2-substituted at C-terminus) (peptide)", "peptide": "FGGFMRRV-NH2"}, "B2": {"name": "LIH383, octapeptide FGGFMRRK (SEQ ID NO: 3; NH2-substituted at C-terminus) (peptide)", "peptide": "H-FGGFMRRK-NH2"}, "B3": {"name": "dynorphin 2-13 (SEQ ID NO: 20; NH2-substituted at C-terminus) (peptide)", "peptide": "GGFLRRIRPKLK-NH2"}, "B4": {"name": "Cy-5-labelled LIH383 (peptide)", "peptide": "FGGFMRRK", "modifications": "also: Cy5 label, site not given here", "notes": "also called LIH383-Cy5; fluorescently labelled LIH383"}, "B5": {"name": "delta-type opioid receptor (DOR) (receptor, UniProt P41143 1-372, looked up)", "chain": "MEPAPSAGAELQPPLFANASDAYPSACPSAGANASGPPGARSASSLALAIAITALYSAVCAVGLLGNVLVMFGIVRYTKMKTATNIYIFNLALADALATSTLPFQSAKYLMETWPFGELLCKAVLSIDYYNMFTSIFTLTMMSVDRYIAVCHPVKALDFRTPAKAKLINICIWVLASGVGVPIMVMAVTRPRDGAVVCMLQFPSPSWYWDTVTKICVFLFAFVVPILIITVCYGLMLLRLRSVRLLSGSKEKDRSLRRITRMVLVVVGAFVVCWAPIHIFVIVWTLVDIDRRDPLVVAALHLCIALGYANSSLNPVLYAFLDENFKRCFRQLCRKPCGRPDPSSFSRAREATARERVTACTPSDGPGGGAAA", "notes": "whole, on cells; C-terminally SmBiT-tagged in the NanoBiT assays; also called OPRD; DOP"}, "B6": {"name": "dynorphin 2-17 (SEQ ID NO: 19) (peptide)", "peptide": "GGFLRRIRPKLKWDNQ"}},
  "key": {"[1]": {"target": "B5", "assay": "cell-based or functional assay"}, "[2]": {"target": "mu-type opioid receptor (MOR) (UniProt P35372 1-400)", "sequence (P35372 whole entry)": "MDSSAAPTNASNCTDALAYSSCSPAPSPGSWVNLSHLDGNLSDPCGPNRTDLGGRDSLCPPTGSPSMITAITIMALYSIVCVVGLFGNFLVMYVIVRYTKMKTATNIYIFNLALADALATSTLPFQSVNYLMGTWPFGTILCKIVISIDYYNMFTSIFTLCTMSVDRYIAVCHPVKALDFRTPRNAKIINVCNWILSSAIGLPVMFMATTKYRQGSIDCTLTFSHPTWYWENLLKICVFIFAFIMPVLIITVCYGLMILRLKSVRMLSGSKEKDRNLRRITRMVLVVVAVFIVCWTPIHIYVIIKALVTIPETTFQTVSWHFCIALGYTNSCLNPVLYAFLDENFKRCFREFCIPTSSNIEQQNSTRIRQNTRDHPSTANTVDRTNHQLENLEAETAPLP", "assay": "cell-based or functional assay"}, "[3]": {"target": "kappa-type opioid receptor (KOR) (UniProt P41145 1-380)", "sequence (P41145 whole entry)": "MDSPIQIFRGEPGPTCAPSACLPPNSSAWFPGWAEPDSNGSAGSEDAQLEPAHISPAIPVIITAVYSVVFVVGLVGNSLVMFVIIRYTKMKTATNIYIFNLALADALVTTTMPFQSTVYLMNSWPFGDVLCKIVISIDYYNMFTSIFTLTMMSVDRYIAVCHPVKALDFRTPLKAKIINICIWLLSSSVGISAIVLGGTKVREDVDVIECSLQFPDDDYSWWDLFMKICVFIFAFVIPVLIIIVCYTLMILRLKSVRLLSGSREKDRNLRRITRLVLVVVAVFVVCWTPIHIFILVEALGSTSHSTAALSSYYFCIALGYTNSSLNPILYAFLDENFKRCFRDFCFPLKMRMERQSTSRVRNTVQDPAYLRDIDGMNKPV", "assay": "cell-based or functional assay"}, "[4]": {"target": "T1, human atypical chemokine receptor 3 (ACKR3) (human, UniProt P25106 1-362)", "T1 sequence (P25106 whole entry)": "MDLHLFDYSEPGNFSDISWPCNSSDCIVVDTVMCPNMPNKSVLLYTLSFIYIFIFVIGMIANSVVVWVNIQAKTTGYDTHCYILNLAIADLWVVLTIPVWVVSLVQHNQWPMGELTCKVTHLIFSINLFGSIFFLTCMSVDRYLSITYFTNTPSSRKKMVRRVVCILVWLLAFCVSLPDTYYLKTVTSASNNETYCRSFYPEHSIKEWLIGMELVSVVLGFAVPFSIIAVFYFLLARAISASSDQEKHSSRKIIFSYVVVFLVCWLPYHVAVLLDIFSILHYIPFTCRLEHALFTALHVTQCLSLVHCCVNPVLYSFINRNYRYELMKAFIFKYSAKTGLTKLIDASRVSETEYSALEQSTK", "assay": "cell-based or functional assay"}, "[5]": {"target": "T1, human atypical chemokine receptor 3 …", "assay": "flow cytometry competition with 5 nM CXCL12-AF647 on U87-ACKR3 cells", "description": "Dead cells were excluded using Zombie Green viability dye (BioLegend). […] Ligand binding was quantified by mean fluorescence intensity on a BD FACS Fortessa cytometer (BD Biosciences)."}, "[6]": {"target": "T2, C-X-C motif chemokine receptor 4 (CXCR4) (UniProt P61073 1-352)", "T2 construct": "whole, on cells; Stably expressed in U87 cells (U87-CXCR4); C-terminally SmBiT-tagged in the NanoBiT assays", "T2 sequence (P61073 whole entry)": "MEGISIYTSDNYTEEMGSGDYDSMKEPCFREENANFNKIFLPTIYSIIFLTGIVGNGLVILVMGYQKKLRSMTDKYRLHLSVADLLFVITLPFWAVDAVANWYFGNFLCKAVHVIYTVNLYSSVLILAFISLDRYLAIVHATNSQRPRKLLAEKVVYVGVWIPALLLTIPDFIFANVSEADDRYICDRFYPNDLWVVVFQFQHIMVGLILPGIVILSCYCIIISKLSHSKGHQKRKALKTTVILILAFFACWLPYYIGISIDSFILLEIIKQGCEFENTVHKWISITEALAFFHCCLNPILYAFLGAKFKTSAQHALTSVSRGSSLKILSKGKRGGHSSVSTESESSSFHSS", "assay": "flow cytometry, labelled peptide on U87-CXCR4 cells"}, "[7]": {"target": "T3, human β-arrestin-1 N-terminally fused to LgBiT (human, UniProt P49407 1-418)", "T3 construct": "Co-expressed in U87 cells with SmBiT-tagged receptors; also called LgBiT-beta-arrestin-1; not shown: LgBiT (NanoBiT, Promega)", "T3 sequence (P49407 whole entry, the tested form may be a part)": "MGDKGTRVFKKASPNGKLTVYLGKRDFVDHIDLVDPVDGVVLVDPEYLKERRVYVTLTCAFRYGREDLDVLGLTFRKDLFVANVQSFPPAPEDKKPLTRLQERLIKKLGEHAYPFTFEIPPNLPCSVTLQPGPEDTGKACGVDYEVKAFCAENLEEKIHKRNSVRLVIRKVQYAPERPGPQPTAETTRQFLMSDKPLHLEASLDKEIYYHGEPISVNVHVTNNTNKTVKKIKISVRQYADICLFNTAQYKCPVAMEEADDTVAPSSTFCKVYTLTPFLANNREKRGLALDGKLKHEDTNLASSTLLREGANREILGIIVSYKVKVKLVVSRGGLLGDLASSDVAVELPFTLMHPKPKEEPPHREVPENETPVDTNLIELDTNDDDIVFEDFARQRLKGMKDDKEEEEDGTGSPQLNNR", "assay": "NanoBiT complementation in U87 cells (receptor-SmBiT, LgBiT-β-arrestin-1), induced by adrenorphin", "experimental": "48 hours post-transfection cells were harvested, incubated 25 minutes at 37° C. with Nano-Glo Live Cell substrate diluted 200-fold and distributed into white 96-well plates (5×10⁴ cells per well). Ligand-induced, β-arrestin and mG recruitment to GPCRs was evaluated with a Mithras LB940 luminometer (Berthold Technologies) for 20 minutes. For concentration-response curves, the signal recorded with a saturating concentration of full agonist for each receptor was set as 100%."}},
  "note": "No end group written: not given here.",
  "data": [
    {"binder": "B1", "values": [
      {"measurement": "fold reduction of potency against WT adrenorphin, β-arrestin-1 recruitment", "setting": "[1]", "result": "> 100", "unit": "fold"},
      {"measurement": "fold reduction of potency against WT adrenorphin, β-arrestin-1 recruitment", "setting": "[2]", "result": "> 100", "unit": "fold"},
      {"measurement": "fold reduction of potency against WT adrenorphin, β-arrestin-1 recruitment", "setting": "[3]", "result": "> 100", "unit": "fold"},
      {"measurement": "fold change of potency against WT adrenorphin, β-arrestin-1 recruitment", "setting": "[4]", "result": 10, "unit": "fold"}
    ]},
    {"binder": "B2", "values": [
      {"measurement": "EC50, β-arrestin recruitment (NanoBiT)", "setting": "[4]", "result": 0.61, "unit": "nM"}
    ]},
    {"binder": "B3", "values": [
      {"measurement": "binding result", "setting": "[5]", "result": "binds"}
    ]},
    {"binder": "B4", "values": [
      {"measurement": "binding result", "setting": "[6]", "result": "no binding"}
    ]},
    {"binder": "B5", "values": [
      {"measurement": "binding result", "setting": "[7]", "result": "binds"}
    ]},
    {"binder": "B6", "values": [
      {"measurement": "binding result", "setting": "[5]", "result": "binds"}
    ]}
  ]
}
